The source of these data is patent publication US20250002577A1 (ONCORESPONSE, published 2025).

Substitutions are numbered along the chain they refer to.

To fix the notation:
B1: B21H4-11 (antibody, human IgG4 S228P, kappa)
heavy: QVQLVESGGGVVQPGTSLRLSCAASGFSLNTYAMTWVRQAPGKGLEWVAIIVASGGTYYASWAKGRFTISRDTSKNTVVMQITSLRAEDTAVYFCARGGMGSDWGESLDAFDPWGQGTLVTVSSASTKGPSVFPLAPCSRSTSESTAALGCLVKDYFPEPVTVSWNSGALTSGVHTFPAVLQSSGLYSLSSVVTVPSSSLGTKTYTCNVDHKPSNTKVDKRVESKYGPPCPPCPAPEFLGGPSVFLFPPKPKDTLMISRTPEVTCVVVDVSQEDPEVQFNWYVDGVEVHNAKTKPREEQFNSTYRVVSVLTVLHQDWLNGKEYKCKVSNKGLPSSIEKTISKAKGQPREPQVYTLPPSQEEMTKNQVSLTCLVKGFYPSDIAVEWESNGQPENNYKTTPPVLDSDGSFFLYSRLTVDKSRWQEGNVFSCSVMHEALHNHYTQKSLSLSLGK
light: DIQMTQSPSTLSASVGDRVTITCQASGNIYSFLAWYQQKPGKAPKLLIYTASNLETGVPSRFSGSGSGTEYTLTISSLQPDDFATYYCLGGLYSSDVSYAFGPGTKVEIKRTVAAPSVFIFPPSDEQLKSGTASVVCLLNNFYPREAKVQWKVDNALQSGNSQESVTEQDSKDSTYSLSSTLTLSKADYEKHKVYACEVTHQGLSSPVTKSFNRGEC
notes: humanized IgG4/kappa, VH1+VL1; transfection supernatant
B2: B21H4-23 (antibody, human IgG4 S228P, kappa)
heavy: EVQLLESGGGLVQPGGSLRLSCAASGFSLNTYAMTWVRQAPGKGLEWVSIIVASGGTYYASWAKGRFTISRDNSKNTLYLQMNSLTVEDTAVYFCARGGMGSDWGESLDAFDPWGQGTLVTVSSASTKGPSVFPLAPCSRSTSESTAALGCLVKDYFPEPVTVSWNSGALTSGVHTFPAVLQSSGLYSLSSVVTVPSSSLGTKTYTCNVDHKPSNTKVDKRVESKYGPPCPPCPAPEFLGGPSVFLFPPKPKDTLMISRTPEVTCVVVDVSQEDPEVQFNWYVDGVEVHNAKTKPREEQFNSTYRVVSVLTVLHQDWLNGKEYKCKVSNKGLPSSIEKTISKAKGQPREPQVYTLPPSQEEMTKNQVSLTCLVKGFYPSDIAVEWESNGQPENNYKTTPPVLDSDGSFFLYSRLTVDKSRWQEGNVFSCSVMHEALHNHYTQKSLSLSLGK
light: B1 light with Q3V, T10S, L11V, E70D, Y71F, D81E, P103G, E108V
notes: humanized IgG4/kappa, VH2+VL3; transfection supernatant
B3: B21H4-32 (antibody, human IgG4 S228P, kappa)
heavy: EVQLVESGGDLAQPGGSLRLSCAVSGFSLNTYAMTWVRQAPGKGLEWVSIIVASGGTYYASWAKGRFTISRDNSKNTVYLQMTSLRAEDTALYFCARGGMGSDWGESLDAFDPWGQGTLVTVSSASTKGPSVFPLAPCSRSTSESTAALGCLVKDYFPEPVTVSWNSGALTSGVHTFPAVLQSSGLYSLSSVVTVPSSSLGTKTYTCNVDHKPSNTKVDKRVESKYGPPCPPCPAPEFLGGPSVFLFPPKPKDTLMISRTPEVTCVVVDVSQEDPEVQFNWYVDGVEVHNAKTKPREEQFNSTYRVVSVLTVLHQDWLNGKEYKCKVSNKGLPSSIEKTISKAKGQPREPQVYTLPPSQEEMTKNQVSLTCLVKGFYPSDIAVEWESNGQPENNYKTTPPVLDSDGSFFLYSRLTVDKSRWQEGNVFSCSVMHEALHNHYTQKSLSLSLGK
light: B1 light with T10S, A43V, E70D, P80S, D81E, F83A, P103G, E108V
notes: humanized IgG4/kappa, VH3+VL2; transfection supernatant
B4: B21H4-42 (antibody, human IgG4 S228P, kappa)
heavy: not shown
light: B1 light with T10S, A43V, E70D, P80S, D81E, F83A, P103G, E108V
notes: humanized IgG4/kappa, VH4+VL2; transfection supernatant
B5: B21H4-12 (antibody, human IgG4 S228P, kappa)
heavy: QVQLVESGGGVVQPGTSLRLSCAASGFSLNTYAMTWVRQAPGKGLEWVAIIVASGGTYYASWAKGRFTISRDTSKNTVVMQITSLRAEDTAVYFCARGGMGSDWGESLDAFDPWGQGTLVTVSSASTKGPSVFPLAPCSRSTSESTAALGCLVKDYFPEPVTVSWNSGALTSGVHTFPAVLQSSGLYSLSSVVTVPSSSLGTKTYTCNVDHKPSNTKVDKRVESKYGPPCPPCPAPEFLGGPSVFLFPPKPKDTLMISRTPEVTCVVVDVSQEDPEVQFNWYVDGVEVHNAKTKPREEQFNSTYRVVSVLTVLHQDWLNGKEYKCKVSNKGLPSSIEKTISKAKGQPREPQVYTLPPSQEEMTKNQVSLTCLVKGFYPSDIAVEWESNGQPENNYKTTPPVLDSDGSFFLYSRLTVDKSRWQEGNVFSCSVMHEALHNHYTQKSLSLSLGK
light: B1 light with T10S, A43V, E70D, P80S, D81E, F83A, P103G, E108V
notes: humanized IgG4/kappa, VH1+VL2; transfection supernatant
B6: B21H4-33 (antibody, human IgG4 S228P, kappa)
heavy: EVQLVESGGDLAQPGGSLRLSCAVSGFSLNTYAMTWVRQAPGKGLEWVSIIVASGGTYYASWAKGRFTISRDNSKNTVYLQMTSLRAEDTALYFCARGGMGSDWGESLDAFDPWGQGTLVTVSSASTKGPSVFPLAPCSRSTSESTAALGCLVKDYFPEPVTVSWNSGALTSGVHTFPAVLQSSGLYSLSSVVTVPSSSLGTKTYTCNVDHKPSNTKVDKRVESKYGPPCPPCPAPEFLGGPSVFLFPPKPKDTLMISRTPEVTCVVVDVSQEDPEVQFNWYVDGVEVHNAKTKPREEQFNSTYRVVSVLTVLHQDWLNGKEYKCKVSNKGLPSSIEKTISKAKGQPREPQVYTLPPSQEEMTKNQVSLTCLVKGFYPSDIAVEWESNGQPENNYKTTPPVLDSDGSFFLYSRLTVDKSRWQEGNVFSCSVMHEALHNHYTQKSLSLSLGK
light: B1 light with Q3V, T10S, L11V, E70D, Y71F, D81E, P103G, E108V
notes: humanized IgG4/kappa, VH3+VL3; transfection supernatant
B7: B21H4-22 (antibody, human IgG4 S228P, kappa)
heavy: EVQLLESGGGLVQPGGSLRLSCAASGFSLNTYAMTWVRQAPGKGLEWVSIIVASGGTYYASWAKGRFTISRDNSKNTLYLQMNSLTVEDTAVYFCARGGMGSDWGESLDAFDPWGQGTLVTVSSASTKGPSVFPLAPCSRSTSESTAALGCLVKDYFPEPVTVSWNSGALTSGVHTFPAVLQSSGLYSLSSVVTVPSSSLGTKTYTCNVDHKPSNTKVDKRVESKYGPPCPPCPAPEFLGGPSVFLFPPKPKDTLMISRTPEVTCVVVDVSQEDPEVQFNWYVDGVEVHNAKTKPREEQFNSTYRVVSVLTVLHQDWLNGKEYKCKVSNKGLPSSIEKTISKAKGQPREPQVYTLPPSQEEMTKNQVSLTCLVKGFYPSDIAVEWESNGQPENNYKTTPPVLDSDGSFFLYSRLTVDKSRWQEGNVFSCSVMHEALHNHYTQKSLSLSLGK
light: B1 light with T10S, A43V, E70D, P80S, D81E, F83A, P103G, E108V
notes: humanized IgG4/kappa, VH2+VL2; transfection supernatant
B8: B21H4-21 (antibody, human IgG4 S228P, kappa, V domains shown)
VH: EVQLLESGGGLVQPGGSLRLSCAASGFSLNTYAMTWVRQAPGKGLEWVSIIVASGGTYYASWAKGRFTISRDNSKNTLYLQMNSLTVEDTAVYFCARGGMGSDWGESLDAFDPWGQGTLVTVSS
VL: DIQMTQSPSTLSASVGDRVTITCQASGNIYSFLAWYQQKPGKAPKLLIYTASNLETGVPSRFSGSGSGTEYTLTISSLQPDDFATYYCLGGLYSSDVSYAFGPGTKVEIKR
notes: humanized IgG4/kappa, VH2+VL1; transfection supernatant
B9: B21H4-43 (antibody, human IgG4 S228P, kappa)
heavy: not shown
light: B1 light with Q3V, T10S, L11V, E70D, Y71F, D81E, P103G, E108V
notes: humanized IgG4/kappa, VH4+VL3; transfection supernatant
B10: B21H4-24 (antibody, human IgG4 S228P, kappa)
heavy: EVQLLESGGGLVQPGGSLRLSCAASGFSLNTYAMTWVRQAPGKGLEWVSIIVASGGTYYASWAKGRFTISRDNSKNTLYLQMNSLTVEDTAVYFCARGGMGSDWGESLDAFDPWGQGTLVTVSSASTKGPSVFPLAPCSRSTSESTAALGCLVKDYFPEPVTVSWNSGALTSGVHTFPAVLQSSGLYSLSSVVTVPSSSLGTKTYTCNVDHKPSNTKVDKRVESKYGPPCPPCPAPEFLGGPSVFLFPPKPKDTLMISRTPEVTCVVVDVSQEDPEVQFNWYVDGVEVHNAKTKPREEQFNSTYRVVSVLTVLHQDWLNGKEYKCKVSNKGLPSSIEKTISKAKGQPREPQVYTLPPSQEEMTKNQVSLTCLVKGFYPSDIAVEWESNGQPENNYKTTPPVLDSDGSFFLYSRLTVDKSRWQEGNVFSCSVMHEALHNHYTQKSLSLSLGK
light: B1 light with I2V, Q3V, L11V, I21L, K42Q, A43P, S60D, E70D, P80A, P103Q
notes: humanized IgG4/kappa, VH2+VL4; transfection supernatant
B11: B21H4-35 (antibody, human IgG4 S228P, kappa, V domains shown)
VH: B8 VH with L5V, G10D, V12A, A24V, L78V, N83T, T86R, V87A, V92L
VL: DIQMTQTPSTVEASVGGTVTITCQASGNIYSFLAWYQQKPGQPPKLLIYTASNLETGVPSRFSGSGSGTEYTLTISGLQSDDAATYYCLGGLYSSDVSYAFGGGTEVVVKR
notes: humanized IgG4/kappa, VH3+VL5; transfection supernatant
B12: B21H4-31 (antibody, human IgG4 S228P, kappa, V domains shown)
VH: B8 VH with L5V, G10D, V12A, A24V, L78V, N83T, T86R, V87A, V92L
VL: B8 VL
notes: humanized IgG4/kappa, VH3+VL1; transfection supernatant
B13: B21H4-15 (antibody, human IgG4 S228P, kappa)
heavy: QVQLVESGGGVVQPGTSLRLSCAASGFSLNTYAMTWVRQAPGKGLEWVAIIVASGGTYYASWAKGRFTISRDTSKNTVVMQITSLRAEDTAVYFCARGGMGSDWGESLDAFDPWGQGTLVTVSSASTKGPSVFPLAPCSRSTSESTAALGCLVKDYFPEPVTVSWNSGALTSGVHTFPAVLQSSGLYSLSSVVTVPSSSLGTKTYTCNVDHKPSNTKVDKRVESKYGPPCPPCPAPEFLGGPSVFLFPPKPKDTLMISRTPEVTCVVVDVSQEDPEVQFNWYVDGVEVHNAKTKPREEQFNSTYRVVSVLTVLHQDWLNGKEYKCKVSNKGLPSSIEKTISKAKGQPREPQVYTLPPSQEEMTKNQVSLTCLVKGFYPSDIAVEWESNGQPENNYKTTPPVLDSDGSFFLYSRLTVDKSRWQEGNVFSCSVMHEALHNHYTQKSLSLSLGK
light: DIQMTQTPSTVEASVGGTVTITCQASGNIYSFLAWYQQKPGQPPKLLIYTASNLETGVPSRFSGSGSGTEYTLTISGLQSDDAATYYCLGGLYSSDVSYAFGGGTEVVVKRTVAAPSVFIFPPSDEQLKSGTASVVCLLNNFYPREAKVQWKVDNALQSGNSQESVTEQDSKDSTYSLSSTLTLSKADYEKHKVYACEVTHQGLSSPVTKSFNRGEC
notes: humanized IgG4/kappa, VH1+VL5; transfection supernatant
B14: B21H4-55 (antibody, human IgG4 S228P, kappa)
heavy: not shown
light: B13 light
notes: humanized IgG4/kappa, VH5+VL5; transfection supernatant
B15: B21H4-25 (antibody, human IgG4 S228P, kappa)
heavy: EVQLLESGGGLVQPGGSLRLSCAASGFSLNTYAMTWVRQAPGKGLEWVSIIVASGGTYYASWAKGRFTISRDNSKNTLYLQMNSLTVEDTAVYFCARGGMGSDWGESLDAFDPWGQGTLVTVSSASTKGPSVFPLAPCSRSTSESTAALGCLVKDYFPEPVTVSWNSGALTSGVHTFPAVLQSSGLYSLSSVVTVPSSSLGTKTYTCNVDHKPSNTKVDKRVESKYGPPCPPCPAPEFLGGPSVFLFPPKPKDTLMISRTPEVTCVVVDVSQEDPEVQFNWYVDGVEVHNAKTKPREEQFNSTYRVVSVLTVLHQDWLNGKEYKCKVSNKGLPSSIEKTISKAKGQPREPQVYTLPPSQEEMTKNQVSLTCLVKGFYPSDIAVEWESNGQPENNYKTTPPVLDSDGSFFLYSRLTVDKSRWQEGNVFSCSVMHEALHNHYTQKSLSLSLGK
light: B13 light
notes: humanized IgG4/kappa, VH2+VL5; transfection supernatant
B16: B21H4-41 (antibody, human IgG4 S228P, kappa, V domains shown)
VH: EVQLVESGGGLVQPGGSLRLSCAASGFSLNTYAMTWVRQAPGKGLEWISIIVASGGTYYASWAKGRFTISRDNAKSSVYLQLTSLTTEDTAVYYCARGGMGSDWGESLDAFDPWGQGTMVTVSS
VL: B8 VL
notes: humanized IgG4/kappa, VH4+VL1; transfection supernatant
B17: B21H4-44 (antibody, human IgG4 S228P, kappa, V domains shown)
VH: B16 VH
VL: B8 VL with I2V, Q3V, L11V, I21L, K42Q, A43P, S60D, E70D, P80A, P103Q
notes: humanized IgG4/kappa, VH4+VL4; transfection supernatant

In one assay the target is T1, recombinant human LILRB1-His (human, UniProt Q8NHL6 24-458).
T1 construct: Bought protein; also called LILRB1 protein
T1 sequence (Q8NHL6 24-458 limits assumed): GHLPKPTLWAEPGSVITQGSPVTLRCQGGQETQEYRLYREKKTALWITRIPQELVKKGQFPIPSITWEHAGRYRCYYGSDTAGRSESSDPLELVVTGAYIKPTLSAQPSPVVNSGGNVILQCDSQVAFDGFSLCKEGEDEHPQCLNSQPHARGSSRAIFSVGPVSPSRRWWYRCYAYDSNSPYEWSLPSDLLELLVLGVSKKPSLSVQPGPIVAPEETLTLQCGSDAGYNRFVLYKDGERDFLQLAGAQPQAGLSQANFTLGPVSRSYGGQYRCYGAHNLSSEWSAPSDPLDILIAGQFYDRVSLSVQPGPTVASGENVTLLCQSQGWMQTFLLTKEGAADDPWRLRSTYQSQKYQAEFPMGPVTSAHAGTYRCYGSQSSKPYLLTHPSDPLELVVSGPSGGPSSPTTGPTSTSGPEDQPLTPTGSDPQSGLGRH
Put plainly: MSD ELISA, coated antigen, transfection supernatant. The method, then:
(§1) To confirm binding to human LILRB1 and human LILRB2, transfection supernatants (obtained in Example 2) were evaluated for binding by ELISA. The conditioned media from these transient transfections were assayed for human IgG concentration by AlphaLISA® immunoassay (PerkinElmer, No. AL310C) (Table 4). A plate-based MSD ELISA was performed in which human LILRB1-His or LILRB2-His was immobilized, and binding of transfection supernatants of humanized mAb variants was detected via an anti-human IgG Sulfo-tag-labeled secondary antibody. The IgG1 version of the parental rabbit/human chimera (designated B21A1) transfection served as the benchmark EC₅₀ positive control.
(§2) Recombinant human and cynomolgus LILRB1 proteins (R&D Systems, No. 8989-T2-050; ACROBiosystems, No. CDJ-C52H3) and recombinant human and cynomolgus LILRB2 proteins (ACROBiosystems, No. LI2-H5220; No. L12-C52H3) were diluted in PBS to 4 μg/mL and added to a multi-array 384-well high-binding plates (MSD, No. L21XA4) at 10 μL/well and incubated at 4° C. overnight. The plates were washed several times with Wash Buffer (0.05% Tween® 20 in PBS), using a microplate washer and then blocked with 70 μL/well of 5% BSA in PBS for 1 hour (h) at room temperature (RT) with shaking at 700 rpm. After blocking, 20 μL/well of anti-LILRB2/LILRB1 antibodies or isotype control were added to the plates, and the plates were sealed and incubated for 2 h at RT with shaking at 700 rpm. After primary antibody binding, plates were washed five times with 70 μL/well of Wash Buffer (0.05% Tween® 20 in PBS) using a microplate washer. Secondary detection antibody (SULFO-TAG™-labeled goat anti-human IgG antibody (MSD, No. R32AJ-1)) was diluted to 4 μg/mL in assay diluent (1% BSA in PBS) and 10 μL/well was added to plates and incubated at RT protected from light for 1 h, with shaking at 700 rpm. Following incubation, plates were washed five times with Wash Buffer, using a microplate washer. After removal of the final wash, 35 μL/well of MSD Gold Read Buffer B (MSD, No. R60AM-4) was added to all wells using a Multidrop combo washer/dispenser, and plates were read using MESO Sector 600MM instrument (MSD) within 5 minutes (min) after addition of Read Buffer. Signals as counts per minute (cpm) were recorded.
Turning to B1, the EC50 came out at 2.24 ng/mL.

As to B2, the EC50 came to 2.85 ng/mL.

With B3, the EC50 was 2.46 ng/mL.

For the molecule B4, the EC50 was found to be 3.12 ng/mL.

Turning to B5, the half-maximal effective concentration (EC50) is 2.41 ng/mL.

B6: the EC50 is 2.66 ng/mL.

Turning to B7, the half-maximal effective concentration (EC50) stood at 1.85 ng/mL.

For the molecule B8, the EC50 came out at 2.32 ng/mL.

For the molecule B9, the EC50 stood at 3.04 ng/mL.

As to B10, the half-maximal effective concentration (EC50) came to 1.95 ng/mL.

As to B11, the EC50 was found to be 3.91 ng/mL.

As for B12, the EC50 was determined as 3.58 ng/mL.

As to B13, the EC50 came out at 3.1 ng/mL.

Consider B14, for which the EC50 was 2.92 ng/mL.

B15: the EC50 is 3.95 ng/mL.

As to B16, the EC50 is 5.71 ng/mL.

B17: the EC50 is 3.23 ng/mL.

In another assay the target is T2, recombinant human LILRB2-His (human, UniProt Q8N423 22-461, limits assumed).
T2 construct: Bought protein; also called LILRB2 protein
T2 sequence (Q8N423 22-461 limits assumed): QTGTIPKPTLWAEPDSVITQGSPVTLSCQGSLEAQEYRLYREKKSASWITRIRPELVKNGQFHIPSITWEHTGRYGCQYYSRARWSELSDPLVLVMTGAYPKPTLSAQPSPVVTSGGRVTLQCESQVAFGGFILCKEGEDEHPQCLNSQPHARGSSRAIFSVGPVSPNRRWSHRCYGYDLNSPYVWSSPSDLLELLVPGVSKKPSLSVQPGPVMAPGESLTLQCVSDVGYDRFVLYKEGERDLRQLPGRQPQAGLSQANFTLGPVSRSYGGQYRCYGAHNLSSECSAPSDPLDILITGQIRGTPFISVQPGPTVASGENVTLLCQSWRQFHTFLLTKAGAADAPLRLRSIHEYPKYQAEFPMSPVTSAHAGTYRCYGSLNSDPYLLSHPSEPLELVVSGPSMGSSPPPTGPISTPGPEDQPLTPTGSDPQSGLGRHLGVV
Described as above. How it is done: as §1, §2
B1: the EC50 was found to be 1.45 ng/mL.

Turning to B2, the EC50 worked out at 1.08 ng/mL.

On to B3, for which the half-maximal effective concentration (EC50) was determined as 0.95 ng/mL.

On to B4, for which the EC50 was found to be 1.08 ng/mL.

As for B5, the EC50 was 0.74 ng/mL.

Consider B6, for which the EC50 came to 0.72 ng/mL.

Consider B7, for which the EC50 turned out to be 1.06 ng/mL.

B8: the EC50 amounted to 1.93 ng/mL.

For B9, the EC50 was 0.63 ng/mL.

B10: the EC50 was 0.84 ng/mL.

Turning to B11, the EC50 worked out at 1.73 ng/mL.

As to B12, the concentration for a half-maximal effect (EC50) worked out at 2.02 ng/mL.

Regarding B13, the 50% effective concentration (EC50) was found to be 1.25 ng/mL.

With B14, the EC50 is 1.57 ng/mL.

Regarding B15, the EC50 amounted to 1.42 ng/mL.

Consider B16, for which the EC50 came out at 1.38 ng/mL.

Take B17: the EC50 was determined as 1.63 ng/mL.
